Results published in the supplement of paper PMC9170038.

Tested on: MS2 coat protein
Assay: apparent KD of MS2 coat protein; higher = weaker reporter binding
Conditions: Eterna round: R107
Procedure, shortened: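 Apparent KD per design is the median of normalised cluster binding-curve fits. Designed RNA switches transcribed on-chip from Illumina sequencing clusters were titrated with SNAP-549-labelled MS2 coat protein in twofold steps from 0.7 or 1.5 nM to 3 µM, with 0.8–1.5 h down to 10–20 min per step. Buffer: 100 mM Tris-HCl pH 7.5, 80 mM KCl, 4 mM MgCl2, without or with constant ligand.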

[1] = input ligand: theophylline 20 uM
[2] = input ligand: theophylline 2 mM
[3] = input ligand: tryptophan 2.4 mM

Sequence	apparent KD of MS2 coat protein (input ligand: arginine 13.2 mM) [nM]	apparent KD of MS2 coat protein [1] [nM]	apparent KD of MS2 coat protein [2] [nM]	apparent KD of MS2 coat protein (input ligand: none) [nM]	apparent KD of MS2 coat protein [3] [nM]
UGAUACCAGUCGGCCGCCACUACAUGAGGAUCACCCAUGUAUCCUCAACUGCUAGAUACUAGCAGUAGGACCGGGACUGGUAUCU	164	408	459	–	–
GGACUAACCAGAAGGAGCGACACGCAGAAACUGCAAAAUCCUCCGCACGAGGAUCACCCGUGUCAGGUAGGUCGCUGGUUAGUCG	38.6	63.6	60.2	54.3	49.7
ACGAACUGUAGUGAUACCAGACACACAUGAGGAUCACCCAUGUUGUUAGCAUGGUGAAUAGUCCCUUGGCAGCACAGUUAGUUCG [#12 Exclusion-TheophyllineB]	71.5	111	–	–	94.3
UCACAUGAGGAUCACCCAUGUACAGGCGAUACCAGCCGUACAUUGGGCCCUUGGCAGCGCACCGAGACCUUUAUAAGCACCUCGG [Zaoranorre]	67	207	–	–	15.7
UCGGCAGUGAACGAUACCAGCGUCACGUGGCCGGUGGUCACAUGAGGAUCACCCAUGUAACGCCCUUGGCAGCGUGCGCGUACCG [Zaancebi]	15.1	63.5	–	–	27.3
GCACAUGAGGAUCACCCAUGUAUUACUGAAGGAGCGAGACAGAACUCAGGUAGGUCGCAGACUGCACAAUUGCGGACGACAUGGG [Exclusion Arginine A GF22]	14.6	41	31.2	31.5	34.3
CAUCCACCUGAAGCCUCCCAAUUCCUCGAUACCAGAGGAUUAAGACUCCCUUGGCAGCGAGCUACAUGAGGAUCACCCAUGUGCC [theeternabot_exclusion_MS2_Theo_A_32]	17.8	24.1	–	–	18.2
CUAAGAGCGGCGGCCGCCACUGGUAACCGAGAGGAGGAGCCUCUGACAUGAGGAUCACCCAUGUUCAGGACCGGGUCGUCUUAGA [#06 Same State - Tryptophan B]	41.2	77.5	74.4	60.2	54.6
AACUGGACCCGUGAUACCAGAGACAUGAGGAUCACCCAUGUACAUGAGGAUCACCCAUGUCUCCCUUGGCAGCACCGCAGGGAGC [Exclusion Theophylline B GF 13]	45.7	127	–	–	128
UCGCUCUGGGUGGAAUCCGGAGAUGUGGAAGGAGCGCUCGAAAGGGCAGGUAGGUCGCCAACGGACAUGAGGAUCACCCAUGUAC [#23 Same State - Arginine A]	29.4	37.5	39.8	25.4	49.2
CAAUGCAGGUCGGCCGCCACUACACACAUGAGGAUCACCCAUGUAGUUACUGGGUGAAGUGGCAGUAGGACCGGGACCUGCAUAA [Brourdmod02]	143	417	568	–	–
AAUACCGGUCCUCGAAGUGAUCCUCAUGAACGAGGACCGGUACGGCCGCCACUCGAUAACAUGAGGAUCACCCAUGUAAUAAUAA [|T'-M'-Trp-Ms2|_Design4]	72.8	93.1	115	63.9	70.6
UCCUCCUCCGGAAGGAGGAGGAGUUGCGAUACCAGCCCGGAAACGGGCCCUUGGCAGCGCACAUGAGGAUCACCCAUGUCAUGUU [#1 Exclusion - Theophylline A Attempt #7 (HarryS)]	16.7	26.3	–	–	18.8
UGACGAUACCUGGAUACCAGCGACAUGAGGAUCACCCAUGUAUGAGGAUCAGCCAUGUUAUGCCCUUGGCAGCCACGAAAGUCUU [UUUMULLIN]	37.5	115	–	–	40.3
UUAAGAGGCUAUCCACUUUGAUUUUGUGAUACCAGAAUAAUUUUAUUCCCUUGGCAGCAUGACAUGAGGAUCACCCAUGUGUCUU [SSTheo A #3]	31.4	46.5	–	–	36.9
UCAGAUGAGGCGGCCGCCACUCGCGGAUAACGAUAGAUUAACAUGAGGAUCACCCAUGUGUCAUGGAGGACCGGGCCCAUGACAU [kjmullin]	23.8	42.3	35.1	–	–
GGCUAGGCUAGCGAUACCAGCAACCAACAUGAUCUGAGGAUCACCCAGGUAGUUGGACGUUGCCCUUGGCAGCGCUAGCCUAGCC [SSThB NP+V+V2 #12 Diff Apt, Same Structure]	15.4	16	12.2	14.3	15.5
UGUAUGGACUGAAGGAGCGGGUAAAUAACCUGAGGAUCACCCAGGUAAAAGGCGAAAGCCACCCAGGUAGGUCGCAGUCCAUACU	10.6	13.7	12.7	–	11
CUAUUUAUAGCGGCCGCCACUUACUCAUGAGGUAACAACAUGAGGAUCACCCAUGUUUGAGGAUCAAGGACCGGGCUAUAGAUAG [AstrosSSTryB#11]	36.7	20.3	24.3	27.5	15
